Data published in patent US20260335456A1, “ANTIBODY-DRUG CONJUGATE HAVING CAMPTOTHECIN-BASED DRUG LINKED TO ANTIBODY HAVING LOW ANTIGEN-BINDING AFFINITY THROUGH LINKER” (PINOTBIO, INC., priority 2022, published 2026).
Like-named read-outs stand apart in the source and are kept apart here.

Legend:
[1] = test system: cells with an ABCG2 efflux pump; experiment: ABCG2 efflux pump resistance, PBX-001 versus Trodelvy; type: cell-based
[2] = test system: metastatic epithelial cancers; conditions: cited from earlier work
[3] = test system: patients treated with Sacituzumab Govitecan; conditions: cited from earlier work
[4] = test system: various metastatic solid tumors; conditions: 8 mg/kg to 18 mg/kg; cited from earlier work
[5] = test system: EGFR; conditions: cited from earlier work
[6] = test system: patients; conditions: phase 1 studies; cited from earlier work
[7] = test system: patients; conditions: cited from earlier work
[8] = test system: normal skin and kidney cells; conditions: compared with cetuximab; cited from earlier work
[9] = test system: EGFR; conditions: cited from earlier work; remark: listed apart in the source
[10] = test system: relapsed glioblastoma; conditions: cited from earlier work
[11] = test system: liver; conditions: versus parent hRS7 IgG; U.S. Pat. No. 9,629,926 B; cited from earlier work
[12] = Lactone to carboxylate form conversion in pH 7.4; type: physicochemical
Method: 3-2. Lactone to Carboxylate Form Conversion in pH 7.4
Afterwards, it was centrifuged at 4 °C, 2 minutes, and 13,000 RCF conditions, and the supernatant was used as a sample.
The column used was Cortecs C18 2.7 μm, 4.6×50 mm Column, and analysis was conducted under the following conditions. 1) 20 minutes: 5% B, 2) sample injection, 3) 2 minutes: 5% B, 4) 10 minutes: 5% B→50% B, 5) 1 minute: 50% B.
In order to measure changes over time, the sample chamber was maintained at 37 °C, and the sample was set to be injected every measurement time. The measurement times were 0, 20, 40, 60, 90, 120, 180, 240, 300, 360, 480, 600 and 720 minutes.
The content was calculated from the peak area of each lactone and carboxylate. Since the absorption coefficients of lactone and carboxylate are different, the lactone area was obtained by multiplying the carboxylate area by the equation below.

[13] = test system: FaDu cell line; experiment: Western blot of DDX5 and anti-apoptotic proteins in FaDu; type: cell-based; conditions: 0, 10, 100 nM
Method: 1-1: Confirmation of Suppressive Activity of Expression of Cancer-Related Survival Genes of DDX5, Survivin, Mcl-1, XIAP and cIAP2 Through Western Blot
200,000 FaDu cell lines were seeded per well in a 6-well plate and incubated at constant temperature (37 °C, 5% CO2). […] It was incubated at constant temperature (37 °C, 5% CO2) for 24 hours. The well was treated with 100 μL of RIPA buffer dissolved in protease inhibitor cocktail. […] Protein concentration was determined through protein assay.
Electrophoresis was performed on the gel at 60V.
7 sheets of activated filter paper, PVDF membrane, gel and 7 sheets of filter paper were placed in order in the cassettes of the Trans-Blot® Turbo™ Transfer System, and the lid was closed, and after being inserted into the machine, the protocol started.
The transferred membrane was immersed in blocking buffer and incubated at constant temperature (RT, 1h). Next, it was incubated at 4 °C overnight in primary antibody solution. It was rinsed with TBST buffer for 3 minutes (repeated 3 times). Incubation was performed (RT, 1h) in a secondary antibody solution conjugated with HRP. It was rinsed with TBST buffer for 3 minutes (repeated 3 times).
After soaking the membrane in the ECL substrate for 3 to 5 minutes, the signal was determined by using the ChemiDoc™ MP Imaging System.

[14] = test system: A549 cell line; experiment: Western blot of DDX5 and anti-apoptotic proteins in A549; type: cell-based
[15] = test system: A549; experiment: Cell viability assay in A549; type: cell-based; conditions: A549, FIG. 9
Method: After 24 hours, 100 μL of the drug at 9 concentrations (serial dilution of 1/5 from 1,000 nM) was treated with the cells. […] In this case, a control group that was not treated with the drug (drug concentration 0) was also prepared. It was cultured at constant temperature (37 °C, 5% CO2) for 3 or 6 days. 100 μL of CellTiter-Glo reagent (using CellTiter-Glo® Luminescent Cell Viability Assay kit (Promega, G7571)) was added to each well and pipetted. After incubation at constant temperature (RT) for 10 minutes, luminescence was measured.

[16] = test system: MDA-MB-453 (HER2++) and FaDu (HER2+) cell lines; experiment: Cell viability test in MDA-MB-453 and FaDu; type: cell-based; conditions: 3 days, FIG. 10
Method: Cell viability assay was performed on MDA-MB-453 (HER2++) cell line and FaDu (HER2+) cell line in the same manner as Example 1-2.

[17] = PBX-7016 pharmacokinetic profile in NOD SCID mice; type: in vivo
[18] = test system: FaDu Xenograft model; experiment: PBX-001 in FaDu Xenograft model; type: in vivo; conditions: DAR 8, FIGS. 12 and 13
[19] = target: T1, Trop2 (Homo sapiens, UniProt P09758); experiment: PBX-001 in vitro and in vivo efficacy versus Trodelvy; conditions: FIGS. 11 to 13
T1 sequence (P09758 27-323): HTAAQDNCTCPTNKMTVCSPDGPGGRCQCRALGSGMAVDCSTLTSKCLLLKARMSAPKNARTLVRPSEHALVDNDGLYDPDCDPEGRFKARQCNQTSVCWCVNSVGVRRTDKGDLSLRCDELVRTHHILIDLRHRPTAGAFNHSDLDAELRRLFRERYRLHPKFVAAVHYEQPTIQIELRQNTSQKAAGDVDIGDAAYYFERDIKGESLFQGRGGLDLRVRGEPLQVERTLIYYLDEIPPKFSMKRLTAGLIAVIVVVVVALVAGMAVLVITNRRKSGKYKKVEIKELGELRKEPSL

[20] = test system: non-human primate; experiment: PBX-001 non-human primate toxicity study; type: in vivo

## Sacituzumab Govitecan: humanized IgG linked to SN-38 through a pH-sensitive linker
[1]
  resistance through ABCG2 efflux pump: resistant
[2]; 8 mg/kg
  anemia, any grade: 38%
  anemia, grade 3 or higher: 13%
  constipation, any grade: 33%
  diarrhea, any grade: 53%
  diarrhea, grade 3 or higher: 4%
  dose reductions: 19%
  fatigue, any grade: 61%
  grade 3 or higher neutropenia after the first dose: 21%
  hair loss, any grade: 46%
  leukopenia, grade 3 or higher: 6%
  nausea, any grade: 59%
  neutropenia, any grade: 42%
  neutropenia, grade 3 or higher: 30%
  vomiting, any grade: 36%
[2]; 10 mg/kg
  anemia, any grade: 42%
  constipation, any grade: 37%
  diarrhea, any grade: 62%
  diarrhea, grade 3 or higher: 10%
  dose reductions: 28%
  fatigue, any grade: 52%
  grade 3 or higher neutropenia after the first dose: 47%
  hair loss, any grade: 37%
  nausea, any grade: 63%
  neutropenia, any grade: 58%
  neutropenia, grade 3 or higher: 36%
  vomiting, any grade: 43%
[3]; all treated patients
  diarrhea, all grade: 65%
  neutropenia, any grade: 61%
[3]; patients
  febrile neutropenia: 7%
  neutropenic colitis: 0.5%
[4]
  dose-limiting toxicity: neutropenia

## ABX-EGF: fully humanized IgG2 monoclonal antibody to EGFR
[5]
  affinity for EGFR versus cetuximab: higher affinity for EGFR than cetuximab
[6]
  most common toxicity: skin toxicity

## Nimotuzumab: humanized IgG1 EGFR-targeting antibody
[7]; humans
  side effects severity: only mild to moderate in severity
[7]; patients
  incidence of severe acneiform rash and gastrointestinal mucosal toxicity: much lower incidence
[8]
  binding to normal skin and kidney cells: much less binding than cetuximab

## panitumumab: antibody drug targeting EGFR
[9]
  binding affinity relative to nimotuzumab: more than 10 times

## ABT-414: ADC targeting EGFR variant III
[10]
  monotherapy efficacy: promising monotherapy efficacy

## hRS7-CL2A-SN-38: Trop-2 ADC of hRS7 with CL2A-SN-38
[11]
  liver uptake: two-fold higher liver uptake

## CC[C@@]1(O)C(=O)OCc2c1cc1n(c2=O)Cc2c-1nc1cc3c(c4c1c2[C@@H](NC(=O)[C@@H](C)O)CC4)OCO3 [PBX-7016]
[12]; pH 7.4, 37 °C
  rate of conversion from lactone to carboxylate form: 0.8 % per minute
[12]; pH 7.4, 37 °C, PBS with 10% DMSO, read-out: carboxylate form formed
  degraded at 3 µM: > 86%
[12]; pH 7.4, reference: exatecan, DXd, SN-38, FL118
  lactone to carboxylate conversion versus reference compounds: faster and at a higher rate than other reference compounds
[13]; FaDu and A549
  DDX5 degradation ranking: followed by 7011, 7016 and 7014
[13]; Survivin, cIAP2, Mcl-1, XIAP, 24 hours
  expression of anti-apoptotic proteins: decrease in the expression of Survivin, cIAP2, Mcl-1 and XIAP as the concentration increased
[14]
  dual mechanism (topoisomerase I inhibition and DDX5 degradation): dual MoA that acts as a degrader of DDX5 (p68)
[14]; FIGS. 7 and 8
  DDX5 inhibition: inhibits DDX5 in a concentration-dependent manner
  Survivin, Mcl-1 inhibition: observed to inhibit Survivin, Mcl-1
  comparison with PBX-7014: worked better than PBX-7014
[14]; FaDu and A549, 0, 10, 100 nM
  DDX5 degradation ranking: followed by 7011, 7016 and 7014
[15]
  efficacy / IC50 in ABCG2-overexpressing cells: still maintained strong efficacy
[16]
  IC50 compared to Dxd: IC50 of the same or higher level than Dxd
[17]; IP 1 mg/kg, 4 h, Mouse 4-6
  plasma concentration, individual mice: BLOQ
[17]; IP 1 mg/kg, 12 h, Mouse 4-6
  plasma concentration, individual mice: BLOQ
[17]; IP 1 mg/kg, 24 h, Mouse 4-6
  plasma concentration, individual mice: BLOQ
[17]; IP 1 mg/kg, 48 h, Mouse 4-6
  plasma concentration, individual mice: BLOQ
[17]; IV 1 mg/kg, 4 h, Mouse 1-3
  plasma concentration, individual mice: BLOQ
[17]; IV 1 mg/kg, 12 h, Mouse 1-3
  plasma concentration, individual mice: BLOQ
[17]; IV 1 mg/kg, 24 h, Mouse 1-3
  plasma concentration, individual mice: BLOQ
[17]; IV 1 mg/kg, 48 h, Mouse 1-3
  plasma concentration, individual mice: BLOQ
[17]; intravascular or intraperitoneal, mice
  clearance from the blood: cleared from the blood very quickly

## PBX-001: ADC of humanized anti-Trop2 antibody hRS7, FL118 and CL2A linker system
[18]
  anticancer efficacy and weight loss: excellent anticancer efficacy without weight loss
[19]
  in vitro and in vivo efficacy versus Trodelvy: better efficacy than Trodelvy
[20]
  safety: excellent safety
[1]
  resistance through ABCG2 efflux pump: not affected
